Entries after “also recorded” stand apart in the source; their conditions may differ.
Experiments:
ARH-77 myeloma cells = assay: SCID/ARH-77 myeloma xenograft model (early and established subcutaneous tumours); format: in vivo, SCID mice
Experimental: There were 8 to 10 animals per treatment group. • A and B: Early tumour model; treatment started 1 day after myeloma cell inoculation and continued until tumour volumes reached the ethical limit. (A) Tumour volume as a function of antibody dose. (B) Kaplan-Meier survival graph as a function of antibody dose. • (C) Established xenograft model; treatment with antibodies started when tumours reached a volume of approximately 100 mm^3. […] Statistical significance was calculated relative to control antibody treatment using Student t test (tumour volume) or the log-rank test (mouse survival) using Graphpad Prism software. Statistical significance was considered for *p<0.05, **p<0.01, and ***p<0.001. Graphs illustrate representative experiments out of several performed.
Blood samples were collected at termination and analyzed by ELISA to determine BI-AB serum trough levels. Trough BI-AB serum concentrations were plotted as a function of anti-tumor activity and fitted using five parameter log-log curve and XLfit software (IDBS, Guildford, United Kingdom).

[1] = target: T1, ICAM-1 epitopes on ARH-77 myeloma cells (Homo sapiens, UniProt P05362); assay: Receptor occupancy / binding in vitro using human tumour cells
T1 construct: endogenous in cells; host or cells: ARH-77 myeloma cells
Experimental: (§1) FIG. 5: Calculation of MABEL: determination of BI-AB IC10 value using in vivo pharmacology assay and in vitro correlation with binding. • (A) Tumour cells were injected subcutaneously into the left flank of SCID mice (n=8 per group). Mice received twice-weekly intraperitoneal injections with BI-AB at a range of 20 to 0.002 mg/kg (until control group had to be sacrificed). […] IC10=concentration at which there is 10% inhibition; ELISA=enzyme-linked immunosorbent assay; MABEL=minimum anticipated biological effect level. • (D) ARH-77myeloma cells were injected subcutaneously into the left flank of SCID mice (n=8 per group). Mice received twice-weekly intravenous injections of BI-AB at 0.002-20 mg/kg until control group had to be sacrificed. Blood samples were collected at termination and analyzed by ELISA to determine BI-AB serum trough levels. Trough BI-AB serum concentrations were plotted as a function of anti-tumor activity and fitted using five parameter log-log curve and XLfit software (IDBS, Guildford, United Kingdom).
Receptor occupancy has been examined in vitro using human tumour cells and the BI-AB level corresponding to binding saturation has been identified. It is assumed that at this concentration, ICAM-1 epitopes on cells of the vascular compartment should be saturated, and any side effects related to the physiological function of ICAM-1 are expected to be […]. […]

B-cell lymphoma = assay: SCID/B-cell lymphoma tumour xenograft models; format: in vivo, SCID mice; conditions: prophylactic and established models; data not shown
ICAM-1 = ICAM-1 (Homo sapiens, UniProt P05362); assay: Binding of BI-AB to ICAM-1
Source text: BI-AB is a fully human immunoglobulin G subtype 1 (IgG1) monoclonal antibody expressed in Chinese Hamster Ovarian (CHO) cells. The BI-AB antibody has a theoretical molecular weight of approximately 144 kDa based on the predicted amino acid sequence. Mass spectrometry, peptide mapping and SDS-PAGE will determine molecular mass and primary and secondary structures. The biological activity is quantified using an ELISA assay, which quantitatively measures the binding of the BI-AB to ICAM-1.

[2] = test system: NCI-H929, EJM, RPMI-8226 myeloma cells; assay: SCID xenografts of CD20-negative ICAM-1-positive myeloma cell lines; format: in vivo, SCID mice; conditions: CD20-negative ICAM-1-positive lines, 2 mg/kg twice-weekly intraperitoneal from Day 1
Experimental: (§2) Antibody treatment with 2 mg/kg BI-AB or control IgG1 was started at Day 1 and was continued on a twice-weekly intraperitoneal dosing regimen. Mice were sacrificed when tumour sizes reached the ethical limit. […] Statistical significance was calculated relative to control antibody treatment using Student t test. Statistical significance was considered for *p<0.05, **p <0.01, and ***p<0.001. ICAM-1-intercellular adhesion molecule 1; SCID=severe combined immunodeficiency

[3] = Pharmacokinetics in the rat, single IV bolus injection; format: in vivo
Source text: A pharmacokinetic (PK) study of BI-AB in the rat has been performed. In this study, the doses of the antibody tested were in such excess in relation to the target antigen concentration that any binding to the target antigen would not be of significant importance for the PK profile. This fact serves as the rationale for performing a PK study in a species where the antibody will not bind to the target antigen. The pharmacokinetics of BI-AB in the rat has been investigated following a single IV bolus injection at dose levels of 0.5, 2.5 and 10 mg/kg.

[4] = Pharmacokinetics in the cynomolgus monkey, escalation dose toxicity study; format: in vivo, cynomolgus monkeys; conditions: 1-100 mg/kg
Source text: • Table 1: BI-AB levels associated 10, 50, and 90% anti-tumour activity correlated with levels of receptor binding. • a—determined in the most sensitive setting in the ARH-77/SCID in vivo tumour model, i.e., early antibody administration. • b—determined in the advanced ARH-77/SCID in vivo tumour model (mice carrying established tumours) • Table 2: Single dose pharmacokinetics of BI-AB following single IV bolus injection • Table 3: Pharmacokinetics of BI-AB following single escalating IV bolus injection The pharmacokinetics of BI-AB was investigated at dose levels of 1, 2, 8, 20, 50, and 100 mg/kg in the escalation dose toxicity study in cynomolgus monkeys. Samples for plasma analysis were taken after all dose levels. […] Cmax were generally obtained at the first sampling time of 0.5 hours post-dose. However at 100 mg/kg the Cmax was reached 8 hours post-dose. Serum concentrations declined in a generally bi-phasic manner with an elimination time ranging from 69 to 264 hours. […] There was some carry-over of the compound between treatments due to the long half-life of BI-AB.
The pharmacokinetics of BI-AB was investigated at dose levels of 1, 2, 8, 20, 50, and 100 mg/kg in the escalation dose toxicity study in cynomolgus monkeys. Samples for plasma analysis were taken after all dose levels.
Cmax were generally obtained at the first sampling time of 0.5 hours post-dose. However at 100 mg/kg the Cmax was reached 8 hours post-dose. Serum concentrations declined in a generally bi-phasic manner with an elimination time ranging from 69 to 264 hours. […] There was some carry-over of the compound between treatments due to the long half-life of BI-AB.

[5] = test system: human multiple myeloma tumour cells; assay: Disseminated tumour model (advanced experimental multiple myeloma), intravenous tumour cell inoculation; format: in vivo, SCID mice
Experimental: SCID mice were irradiated 5 days before intravenous tumour cell inoculation. Animals received intravenous injections with antibody at 2 mg/kg or bortezomib (Velcade) at 0.5 mg/kg on Days 7, 10, 14, and 17 (as indicated by arrows in graph). There were 8 mice per treatment group. Statistical significance was calculated using Log-rank Graphpad Prism software. Significance was determined at *p<0.05, **p<0.01, and ***p<0.001.
BI-AB anti-myeloma activity has additionally been investigated in a disseminated tumour model (a well-established experimental model of human multiple myeloma) at an independent contract research organization. […] After 190 days, when the experiment was terminated, 25% of BI-AB-treated mice were still alive.

[6] = BI-AB serum trough levels by ELISA in the ARH-77/SCID tumour model; format: in vivo, SCID mice; conditions: corresponds to 0.004 mg/kg dose; from fitted five parameter log-log curve
Experimental: as §1
Mean BI-AB serum trough concentrations of different mouse dose groups were determined by ELISA analysis of blood samples collected at different time-points during the course of in vivo experimentation. […]

OPM-2 myeloma cells = assay: SCID xenograft of ICAM-1-negative myeloma cell line; format: in vivo, SCID mice; conditions: ICAM-1-negative OPM-2; 2 mg/kg twice-weekly intraperitoneal from Day 1
Experimental: as §2

[7] = single IV bolus 0.5, 2.5 and 10 mg/kg

T1 sequence (P05362 28-532): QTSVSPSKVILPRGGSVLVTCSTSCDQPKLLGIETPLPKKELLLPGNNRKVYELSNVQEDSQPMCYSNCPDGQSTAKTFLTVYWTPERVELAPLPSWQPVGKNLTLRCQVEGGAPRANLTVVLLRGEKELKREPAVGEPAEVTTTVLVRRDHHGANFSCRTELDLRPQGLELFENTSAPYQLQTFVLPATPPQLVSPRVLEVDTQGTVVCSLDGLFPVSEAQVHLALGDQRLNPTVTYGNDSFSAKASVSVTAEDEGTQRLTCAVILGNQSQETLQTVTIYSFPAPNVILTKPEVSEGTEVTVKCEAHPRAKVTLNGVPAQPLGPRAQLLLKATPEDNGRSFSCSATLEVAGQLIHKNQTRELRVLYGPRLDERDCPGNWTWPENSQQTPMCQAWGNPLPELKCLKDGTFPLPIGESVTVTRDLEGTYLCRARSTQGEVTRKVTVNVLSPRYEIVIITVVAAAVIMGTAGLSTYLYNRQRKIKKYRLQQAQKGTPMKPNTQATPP
ICAM-1, sequence (P05362 28-532): as above

B1: BI-AB: fully human, high-affinity IgG1 mAb specific for ICAM-1 generated from the n-CoDeR human antibody fragment library (antibody, V domains shown)
VH: EVQLLESGGGLVQPGGSLRLSCAASGFTFSNAWMSWVRQAPGKGLEWVAFIWYDGSNKYYADSVKGRFTISRDNSKNTLYLQMNSLRAEDTAVYYCARYSGWYFDYWGQGTLVTVSS
VL: QSVLTQPPSASGTPGQRVTISCTGSSSNIGAGYDVHWYQQLPGTAPKLLIYDNNNRPSGVPDRFSGSKSGTSASLAISGLRSEDEADYYCQSYDSSLSAWLFGGGTKLTVLG
efficacy and potency compared with Rituximab (reducing tumour growth, prolonging survival) (ARH-77 myeloma cells; SCID/ARH-77, prophylactic and established xenograft models, Rituximab e.g. 20 mg/kg): more efficacious and potent compared with Rituximab; also recorded: comparable or improved activity | in vivo anti-myeloma efficacy (tumour volume, survival) (ARH-77 myeloma cells; SCID/ARH-77 xenograft, twice-weekly intraperitoneal, doses 0.016, 0.16, 1.6 (16) mg/kg): significant in vivo anti-myeloma efficacy and potency | MABEL/IC10 dose (10% inhibition of tumour growth) (ARH-77 myeloma cells; early antibody administration, twice-weekly dosing regimen): 4 µg/kg | ARH-77 ICAM-1 epitopes occupied by antibody in vitro ([1]; at 28 ng/mL BI-AB): approximately 30% | binding to ARH-77 myeloma cells ([1]; in vitro): binds to ARH-77 myeloma cells in a dose-dependent manner | anti-lymphoma activity (B-cell lymphoma): significant anti-lymphoma activity | affinity and specificity of binding to ICAM-1 (ICAM-1): binds with high affinity and specificity to ICAM-1 | anti-myeloma activity (tumour growth) [2]: significant and ICAM-1-dependent anti-myeloma activity | systemic exposure versus sex ([3]; single IV bolus): generally independent of sex | clearance and volumes of distribution (Vz and Vss) versus dose [3, 7]: dose independent | systemic exposure versus dose [3, 7]: increased roughly in proportion to dose | time of maximum serum concentrations [3, 7]: within the first hour | systemic exposure versus dose [4]: increased roughly in proportion to the dose | systemic exposure versus gender [4]: without gender deviations | volumes of distribution versus dose [4]: no dose-dependency | survival compared with control-treated mice ([5]; 2 mg/kg intravenous Days 7, 10, 14, 17 (or start 1 day) after tumour cell inoculation): confers protection against advanced experimental multiple myeloma; also recorded: significantly prolonged survival | benchmark against Bortezomib ([5]; BI-AB 2 mg/kg vs bortezomib (Velcade) 0.5 mg/kg): superior | treated mice still alive ([5]; after 190 days, when the experiment was terminated): 25% | steady state trough serum concentration at IC10 inhibition of tumour growth [6]: 0.028 µg/mL | effect on tumour growth (OPM-2 myeloma cells): no effect on tumour growth; also recorded: did not affect tumour growth

Reference: patent publication US20120087916A1, “ANTI-ICAM-1 ANTIBODY, USES AND METHODS” (priority 2009, published 2012)
